In patent US20190338034A1 (Genentech, published 2019):
Numbering of substitutions follows the chain as printed.

B1: anti-idiotypic anti-PD-L1 antibody 105D11 (antibody, mouse IgG2a, kappa, V domains shown)
VH: EVQLVETGGGLVKPGGSLKLSCAASGFAFSSYDMSWVRQTPEKRLEWVAYISSGGGSTYYPDTVKGRFTISRDNAKNTLYLQMSSLKSEDTAMYYCARLVYYDYDDAMDYWGQGTSVTVSS
VL: DIVLTQSPAIMSASPGEKVTITCSASSSVSYMHWFQQKPGTSPKLWIYSTSNLASGVPARFSGSGSGTSYSLTISRMEAEDAATYYCQQRSSYPPTFGGGTRLEIKR
notes: Mouse monoclonal from a hybridoma
B2: anti-idiotypic anti-PD-L1 antibody 48C1 (antibody, mouse IgG2a, kappa, V domains shown)
VH: B1 VH with T7S, L99T, V100I, D103G, A107V
VL: B1 VL with D1Q, S92G, R102K
notes: Mouse monoclonal from a hybridoma; also called atezolizumab anti-idiotypic mouse mAB clone 48C1; atezolizumab anti-ID antibody 48C1
B3: anti-idiotypic anti-PD-L1 antibody 43B5 (antibody, mouse IgG2a, kappa, V domains shown)
VH: EVQLQQSGPELVKPGASVKISCKASGYSFTDYIMLWVKQSHGKSLEWIGNINPYYGSTSYNLKFKGKATLTVDKSSSTAYMQLNSLTSEDSAVYYCARWGGNYEGWFAYWGQGTLVTVSA
VL: DIKMTQSPSSMSVSLGDTVSITCHASQGISSNIGWLQQKPGKSFKGLIYHGTNLEDGVPSRFSGSGSGADYSLTISSLESEDFADYYCVQYAQFPLTFGAGTKLELKR
notes: as for B1

Assays:
[1] = molecular target: T1, atezolizumab (anti-PD-L1 antibody); test: immunofixation electrophoresis (Sebia IFE) gel shift, atezolizumab 1500 µg/mL in PBS pre-incubated 2 h with anti-ID antibody
T1 construct: Full IgG/Ig kappa antibody as used in the IFE gel shift assays; also called anti-PDL1 antibody atezolizumab

[2] = molecular target: T2, anti-PDL1 Fab (Fab of anti-PD-L1 antibody atezolizumab); test: SPR (BIAcore), anti-idiotypic antibody captured by anti-mouse-Fc on CM5 chip, 500 nM anti-PDL1 Fab injected, 25 C, 1:1 Langmuir model
T2 construct: Fab format (Genentech); also called anti-PDL1 antibody Fab
Description: (§1) Binding affinities of anti-PDL1 anti-ID antibodies were measured by Surface Plasmon Resonance (SPR) using a BIAcore™-[…] instrument. Anti-idiotypic antibodies were captured by an anti-mouse-Fc antibody coated on CM5 biosensor chips to achieve approximately 200 response units (RU). For kinetics measurements, 500 nM of anti-PDL1 Fab or framework control Fab (YW167B.43) (Genentech, South San Francisco, Calif.) were injected in HBS-P+ buffer (0.1M HEPES, 1.5M NaCl, 0.5% Surfactant P20—GE Life Science) at 25° C. with a flow rate of […]. Association rates (kₐ) and dissociation rates (kd) were calculated using a simple one-to-one Langmuir binding model (BIAcore Evaluation Software version 3.2). The equilibrium dissociation constant (KD) was calculated as the ratio koff/kₒₙ. See also FIG. 3-5.

[3] = molecular target: T2, anti-PDL1 Fab (Fab of anti-PD-L1 …); test: SPR (BIAcore), anti-ID captured by anti-mouse-Fc on a CM5 chip, anti-PDL1 antibody Fab injected at 500 nM, 25 °C, 1:1 binding model
Description: as §1

[4] = molecular target: T3, YW167B.43 Negative Control; test: SPR (BIAcore), anti-ID captured, YW167B.43 negative control Fab injected at 500 nM, 25 °C. The software prints this 1:1 fit under a flat sensorgram with no response.
T3 construct: also called framework control Fab
Description: as §1

[5] = molecular target: T3, YW167B.43 Negative Control; test: SPR (BIAcore), anti-ID captured, YW167B.43 negative control Fab injected at 500 nM, 25 °C. The software prints this 1:1 fit under a flat sensorgram with no positive response.
Description: as §1

Binder	binding result [1]	Kd [2] [nM]	koff [2] [s⁻¹]	kon [2] [M⁻¹ s⁻¹]	Kd [3] [nM]	koff [3] [s⁻¹]	kon [3] [M⁻¹ s⁻¹]	Kd [4] [nM]	koff [4] [s⁻¹]	kon [4] [M⁻¹ s⁻¹]	Kd [5] [nM]	koff [5] [s⁻¹]	kon [5] [M⁻¹ s⁻¹]
B1	binds	16.5	0.0045	279000	17.5	0.00648	370000	31.7	1.66	5.23e+07			
B2	binds	2.31	0.000977	421000	2.64	0.000949	360000				127	0.000421	3310
B3	binds	90.7	0.00862	95000	89	0.00878	98600	0.222	0.000128	574000			
